The target in assay [1] is T1, Human AXL-Fc (R&D Systems, #154-AL) (human, UniProt P30530 26-451).
T1 construct: Bought reagent; also called human AXL-Fc fusion protein; human AXL-Fc protein; not shown: Fc part of the bought fusion protein
T1 sequence: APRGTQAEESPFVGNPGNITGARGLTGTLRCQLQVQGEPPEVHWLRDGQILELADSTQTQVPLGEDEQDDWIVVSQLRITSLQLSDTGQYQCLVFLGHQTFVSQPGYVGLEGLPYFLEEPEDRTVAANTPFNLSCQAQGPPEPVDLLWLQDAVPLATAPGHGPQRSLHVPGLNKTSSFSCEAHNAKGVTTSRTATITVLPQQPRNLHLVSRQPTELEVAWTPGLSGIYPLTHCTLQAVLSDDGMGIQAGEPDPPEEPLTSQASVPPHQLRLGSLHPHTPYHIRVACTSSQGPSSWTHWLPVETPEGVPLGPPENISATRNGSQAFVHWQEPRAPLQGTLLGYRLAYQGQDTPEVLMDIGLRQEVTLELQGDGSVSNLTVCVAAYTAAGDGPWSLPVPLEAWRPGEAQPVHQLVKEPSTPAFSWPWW
Description: ELISA on plate-adsorbed human AXL-Fc (1 ug/ml), 5-fold antibody dilution series, AP-conjugated goat anti-human IgG, fluorescent substrate (Example 13). A general note: An ELISA detects its analyte on a solid surface through an enzyme-linked reagent.

In assay [2] the target is T1, Human AXL-Fc (R&D Systems, #154-AL). The assay is described as above. The source holds these as a separate data set.
For assay [3] the target is unchanged. The description is as above. The source holds these as a separate data set.
Assay [4] shares this target. The assay can be described thus: ELISA on plate-adsorbed human AXL-Fc (1 ug/ml), 5-fold antibody dilution series, AP-conjugated goat anti-human IgG, fluorescent substrate (Example 14).

Experimental findings from US20120117670A1 (U3 PHARMA, published 2012) are described below.

As a reminder, the EC50 (read off the curve) is the midpoint of the concentration-response curve. A lower EC50 (read off the curve) goes with higher potency in that assay.

Where a chain is given by its changes, count along the chain named. Names and notes keep the numbering of the source.

B1: h#11B7-T25 (antibody, human IgG1, kappa)
heavy: not shown
light: DIQMTQSPSSLSASVGDRVTITCRASQDIGNYLRWFQQKPGKAPKLLISGATNLAAGVPSRFSGSGSGSDFTLTISSLQPEDFATYYCLQSKESPWTFGQGTKVEIKRTVAAPSVFIFPPSDEQLKSGTASVVCLLNNFYPREAKVQWKVDNALQSGNSQESVTEQDSKDSTYSLSSTLTLSKADYEKHKVYACEVTHQGLSSPVTKSFNRGEC
notes: Humanized IgG1/kappa
With B1, the “EC50 (read off the curve)” value in assay [1] was around 0.01 µg/mL.

B2: h#11B7-T12 (antibody, human IgG1, kappa, V domains shown)
VH: QVQLQESGPGLVKPSETLSLTCTVSGYSITSNYWGWIRQPPGKGLEWIGYITYSGSTSYNPSLKSRVSISRDTSKNQFSLKLSSVTAADTAVYYCAITTFYYWGQGTLVTVSS
VL: DIQMTQSPSSLSASVGDRVTITCRASQDIGNYLRWYQQKPGKAPKLMISGATNLAAGVPSRFSGSGSGSDFTLTISSLQPEDFATYYCLQSKESPWTFGQGTKVEIKR
notes: Humanized IgG1/kappa
As to B2, in assay [2], the “EC50 (read off the curve)” value is around 0.04 µg/mL.

B3: h#11B7-T20 (antibody, human IgG1, kappa, V domains shown)
VH: B2 VH with I48M, V67I, S68T
VL: B2 VL with M47L
notes: Humanized IgG1/kappa
For B3, the “EC50 (read off the curve)” value in assay [3] is around 0.02 µg/mL.

B4: h#11B7-T17 (antibody, human IgG1, kappa, V domains shown)
VH: B2 VH with I48M, V67I, S68T
VL: B2 VL with M47L, F71Y
notes: Humanized IgG1/kappa
On to B4, for which the “EC50 (read off the curve)” value in assay [3] was around 0.02 µg/mL.

B5: h#11B7-T22 (antibody, human IgG1, kappa)
heavy: not shown
light: B1 light with F71Y
notes: Humanized IgG1/kappa
For B5, the “EC50 (read off the curve)” value in assay [1] is around 0.02 µg/mL.

B6: h#11B7-T26 (antibody, human IgG1, kappa, V domains shown)
VH: B2 VH with S68T
VL: B2 VL
notes: Humanized IgG1/kappa
Take B6: the 50% effective concentration (EC50 (read off the curve)) in assay [1] was around 0.03 µg/mL.

B7: h#11B7-T27 (antibody, human IgG1, kappa)
heavy: not shown
light: B1 light with F36Y
notes: Humanized IgG1/kappa
With B7, the “EC50 (read off the curve)” value in assay [1] was around 0.02 µg/mL.

B8: h#11B7-T11 (antibody, human IgG1, kappa, V domains shown)
VH: B2 VH
VL: B2 VL with Y36F, M47L
notes: Humanized IgG1/kappa
Consider B8, for which the “EC50 (read off the curve)” value in assay [2] was around 0.02 µg/mL.

B9: h#11B7-T16 (antibody, human IgG1, kappa, V domains shown)
VH: B2 VH with I48M, V67I, S68T
VL: B2 VL with Y36F
notes: Humanized IgG1/kappa
In the case of B9, in assay [3], the “EC50 (read off the curve)” value was around 0.02 µg/mL.

B10: h#11B7-T24 (antibody, human IgG1, kappa, V domains shown)
VH: B2 VH with S68T
VL: B2 VL with M47L, F71Y
notes: Humanized IgG1/kappa
Take B10: the “EC50 (read off the curve)” value in assay [1] is around 0.02 µg/mL.

B11: h#11B7-T8 (antibody, human IgG1, kappa, V domains shown)
VH: B2 VH
VL: B2 VL with Y36F, M47L, F71Y
notes: Humanized IgG1/kappa
For the molecule B11, in assay [2], the “EC50 (read off the curve)” value is around 0.02 µg/mL.

B12: h#11B7-T7 (antibody, human IgG1, kappa, V domains shown)
VH: B2 VH
VL: B2 VL with F71Y
notes: Humanized IgG1/kappa
In the case of B12, the concentration giving a half-maximal response (EC50 (read off the curve)) in assay [2] was around 0.03 µg/mL.

B13: h#11B7-T14 (antibody, human IgG1, kappa, V domains shown)
VH: B2 VH with I48M, V67I, S68T
VL: B2 VL with F71Y
notes: Humanized IgG1/kappa
In the case of B13, the “EC50 (read off the curve)” value in assay [3] is around 0.02 µg/mL.

B14: h#11B7-T9 (antibody, human IgG1, kappa, V domains shown)
VH: B2 VH
VL: B2 VL with Y36F
notes: Humanized IgG1/kappa
As for B14, the “EC50 (read off the curve)” value in assay [2] is around 0.02 µg/mL.

B15: h#11B7-T10 (antibody, human IgG1, kappa, V domains shown)
VH: B2 VH
VL: B2 VL with M47L, F71Y
notes: Humanized IgG1/kappa
Turning to B15, the concentration for a half-maximal effect (EC50 (read off the curve)) in assay [2] is around 0.02 µg/mL.

B16: h#11B7-T21 (antibody, human IgG1, kappa, V domains shown)
VH: B2 VH with S68T
VL: B2 VL with F71Y
notes: Humanized IgG1/kappa
As for B16, in assay [1], the “EC50 (read off the curve)” value was around 0.02 µg/mL.

B17: h#11B7-T13 (antibody, human IgG1, kappa, V domains shown)
VH: B2 VH
VL: B2 VL with M47L
notes: Humanized IgG1/kappa
For the molecule B17, the concentration giving a half-maximal response (EC50 (read off the curve)) in assay [2] was around 0.03 µg/mL.

B18: h#11B7-T23 (antibody, human IgG1, kappa, V domains shown)
VH: B2 VH with S68T
VL: B2 VL with Y36F
notes: Humanized IgG1/kappa
Turning to B18, in assay [1], the concentration for a half-maximal effect (EC50 (read off the curve)) was around 0.01 µg/mL.

B19: h#11B7-T19 (antibody, human IgG1, kappa, V domains shown)
VH: B2 VH with I48M, V67I, S68T
VL: B2 VL
notes: Humanized IgG1/kappa
In the case of B19, the “EC50 (read off the curve)” value in assay [3] is around 0.02 µg/mL.

B20: h#11B7-T15 (antibody, human IgG1, kappa)
heavy: not shown
light: B1 light with F71Y
notes: Humanized IgG1/kappa
Take B20: the “EC50 (read off the curve)” value in assay [3] is around 0.02 µg/mL.

B21: h#11B7-T18 (antibody, human IgG1, kappa)
heavy: not shown
light: B1 light
notes: Humanized IgG1/kappa
For B21, the “EC50 (read off the curve)” value in assay [3] was around 0.02 µg/mL.

B22: h#11D5-T5 (antibody, human IgG1, kappa)
heavy: not shown
light: DIQMTQSPSSLSASVGDRVTITCRASQDIGNYLSWFQQKPGKAPRRMIYGAIKLAVGVPSRFSGSGSGTDYTLTISSLQPEDFATYYCLQYIQFPLTFGGGTKVEIKRTVAAPSVFIFPPSDEQLKSGTASVVCLLNNFYPREAKVQWKVDNALQSGNSQESVTEQDSKDSTYSLSSTLTLSKADYEKHKVYACEVTHQGLSSPVTKSFNRGEC
notes: Humanized IgG1/kappa
With B22, the “EC50 (read off the curve)” value in assay [4] is around 0.01 µg/mL.

B23: h#11D5-T2 (antibody, human IgG1, kappa, V domains shown)
VH: EVQLQESGPGLVKPSQTLSLTCTVSGYSITSNYWGWIRQPPGMGLEWIGHITNSGNTTYNPSLKSRISISVDTSENQFSLKLSSVTPADTAVYYCAKGAFDYWGQGTLVTVSS
VL: DIQMTQSPSSLSASVGDRVTITCRASQDIGNYLSWFQQKPGKAPRLMIYGAIKLAVGVPSRFSGSGSGTDYTLTISSLQPEDFATYYCLQYIQFPLTFGQGTKLEIKR
notes: Humanized IgG1/kappa
Turning to B23, the concentration for a half-maximal effect (EC50 (read off the curve)) in assay [4] is around 0.01 µg/mL.

B24: h#11D5-T1 (antibody, human IgG1, kappa, V domains shown)
VH: B23 VH with E1Q, I67V, S68T
VL: B23 VL with I2V, F36Y, R45K, M47L, Y71F
notes: Humanized antibody of rat #11D5 made from pEF6KCL/h#11D5-T1L and pEF1/FCCU/h#11D5-T1H; also called T1 (humanized #11D5)
B24: the “EC50 (read off the curve)” value in assay [4] was around 0.02 µg/mL.
